Assay results taken from patent US20050084840A1, “Method for screening drug for improving insulin resistance” (priority 2002, published 2005).

Biological target: GAL-PPARγ: chimera protein of the DNA binding region (1-147 amino acids) of yeast Gal4 with the ligand binding region of human PPARγ2 fused to its C terminus, expressed in COS-1 cells (yeast; human) (UniProt P04386)
Experiment: cell-based or functional assay

- promotion of the transcription induction ability of PPARγ in the presence of AOP2 (corrected luciferase activity, COS-1), GI-262570 at 1.0 µM and 10 µM: 3.5 fold
- promotion of the transcription induction ability of PPARγ in the presence of AOP2 (corrected luciferase activity, COS-1), GL-100085 at 1.0 to 10 µM: 4 to 6 fold
- promotion of the transcription induction ability of PPARγ in the presence of AOP2 (corrected luciferase activity, COS-1), GW7282 at 1.0 to 10 µM: 4 to 5 fold
B1: full-length AOP2 with vector-derived V5 epitope and HIS6 tag at the C terminus, expressed from pcDNA-AOP2 in COS-1 cells (protein, not shown: small tags and cut ends)
chain: PGGLLLGDVAPNFEANTTVGRIRFHDFLGDSWGILFSHPRDFTPVCTTELGRAAKLAPEFAKRNVKLIALSIDSVEDHLAWSKDINAYNCEEPTEKLPFPIIDDRNRELAILLGMLDPAEKDEKGMPVTARVVFVFGPDKKLKLSILYPATTGRNFDEILRVVISLQLTAEKRVATPVDWKDGDSVMVLPTIPEEEAKKLFPKGVFTKELPSGKKYLRYTPQP
